Measurements published in patent US20200399394A1 (SURFACE ONCOLOGY, published 2020).

Experiments:
[1] = target: T1, human CD39 (ectonucleoside triphosphate diphosphohydrolase 1) (human, UniProt P49961 1-510); assay: flow cytometry (MFI), AF488-labelled antibody, told under FIG. 4B (MOLP-8 cells; the sentence prints SK-MEL-28)
T1 construct: Endogenous CD39 on MOLP-8 and SK-MEL-28 cells, primary human B cells and primary human monocytes; also called ENTPD1; ATPDase
T1 sequence: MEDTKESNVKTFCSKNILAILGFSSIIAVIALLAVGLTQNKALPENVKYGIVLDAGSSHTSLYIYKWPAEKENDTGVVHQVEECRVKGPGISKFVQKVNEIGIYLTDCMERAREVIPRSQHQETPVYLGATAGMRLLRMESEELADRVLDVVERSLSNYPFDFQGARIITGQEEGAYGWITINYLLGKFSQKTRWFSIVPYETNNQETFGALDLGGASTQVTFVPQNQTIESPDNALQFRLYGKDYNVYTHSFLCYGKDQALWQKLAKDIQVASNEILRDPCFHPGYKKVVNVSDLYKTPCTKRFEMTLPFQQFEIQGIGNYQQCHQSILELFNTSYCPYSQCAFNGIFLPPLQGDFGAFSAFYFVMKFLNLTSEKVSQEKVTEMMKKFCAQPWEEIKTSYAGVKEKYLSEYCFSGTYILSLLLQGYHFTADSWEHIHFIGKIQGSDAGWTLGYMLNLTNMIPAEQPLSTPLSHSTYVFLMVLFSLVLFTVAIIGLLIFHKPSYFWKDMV
Method: (§1) The extent of binding to cells was determined and expressed as mean fluorescent intensity (MFI). Cells were washed with FACS Buffer (2 mM EDTA, 2% FBS) and pelleted by centrifugation. The cells were resuspended in FACS buffer containing a dose range of anti-CD39 or isotype control antibodies directly labelled with fluorophore Alexa Fluor 488 (AF488) and incubated for 30 minutes at room temperature. Cells were then washed twice with FACS buffer followed by fixation in 4% paraformaldehyde (PFA) and resuspended in FACS buffer and analyzed on a FACS Canto II analyzer (BD Biosciences).

[2] = target: T1, human CD39 (ectonucleoside triphosphate …); assay: flow cytometry (MFI), AF488-labelled antibody on SK-MEL-28 cells, FIG. 4A
Method: as §1

B1: SRF370-A (antibody, human IgG4 S228P, kappa, V domains shown)
VH: QVQLVQSGAEVKKPGSSVKVSCKASGGTFSTYAIGWVRQAPGQGLEWMGGIIPAFGTANYAQKFQGRVTITADESTSTAYMELSSLRSEDTAVYYCARDPVRRSPFDIWGQGTMVTVSS
VL: EIVLTQSPATLSLSPGERATLSCRASQSVSSYLAWYQQKPGQAPRLLIYDSSNRATGIPARFSGSGSGTDFTLTISSLEPEDFAVYYCQQSFLWPRTFGGGTKVEIKR
binding result [1]: binds

B2: SRF365-A (antibody, human IgG4 S228P, kappa, V domains shown)
VH: QVQLVQSGAEVKKPGSSVKVSCKASGGTFSDKAISWVRQAPGQGLEWMGSILPIFGTANYAQKFQGRVTITADESTSTAYMELSSLRSEDTAVYYCAREAGYYRYRYFDLWGRGTLVTVSS
VL: EIVMTQSPATLSVSPGERATLSCRASQSVSSNLAWYQQKPGQAPRLLIYGASTRATGIPARFSGSGSGTEFTLTISSLQSEDFAVYYCQQHALWPLTFGGGTKVEIKR
binding result [2]: binds
